The target of experiment [1] is T1, cPD-L1-His (Acro Biosystems, PD1-C52H4) (cynomolgus, UniProt Q9NZQ7 19-238 (human entry)).
T1 construct: bought; also called Cyno PD-L1-His; Cynomolgus PD-L1-His; not shown: His tag of the bought product
Put plainly: SPR, antibody captured on Protein A chip, antigen in flow. (In general: In SPR one partner is held on a chip, and binding of the other changes the refractive index at the surface.)

Experiment [2] addresses T2, biotinylated hPD-L1-Avi-His (Acro Biosystems, PD1-H82E5) (human, UniProt Q9NZQ7 19-238, biotinylated).
T2 construct: bought; also called Human PD-L1-His; not shown: Avi and His tags of the bought product
The description is as above.

Another experiment has as its target T3, human GITR (human, UniProt Q9Y5U5 26-161, limits assumed).
T3 sequence (looked up): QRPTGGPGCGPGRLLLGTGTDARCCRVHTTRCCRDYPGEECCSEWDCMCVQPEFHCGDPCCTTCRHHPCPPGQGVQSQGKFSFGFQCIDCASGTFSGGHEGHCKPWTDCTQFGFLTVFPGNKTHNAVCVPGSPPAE
Put plainly: SPR, receptor amine-coupled to CM5 (~1000 RU). As to the method: (§1) The specificity of the anti-human CD137 Fcabs for human CD137 compared to other related TNFSFR family members was tested. 8 of the Fcabs were tested in mock mAb² (HeID1.3) format and measured by SPR in a Biacore T200 (GE Healthcare) by testing for binding to other human TNFRSF receptors: CD40, OX40 and GITR. Amine coupling (amine coupling kit, GE Healthcare, BR-1000-50) was used to coat human CD40, GITR and OX40 to approximately 1000 RU in Biacore CM5 chips (GE Healthcare, cat no 29149603). […] The chip was regenerated by injection of 10 mM glycine pH 2.5 for 12 s at 30 μl/min. Antibodies specific to the different TNFRSF members were used as positive controls to verify Biacore chip coating. Data was double reference subtracted and analysed using BIAevaluation 3.2 software.

The next experiment addresses T4, human OX40 (human, UniProt P43489 29-216).
T4 sequence (looked up): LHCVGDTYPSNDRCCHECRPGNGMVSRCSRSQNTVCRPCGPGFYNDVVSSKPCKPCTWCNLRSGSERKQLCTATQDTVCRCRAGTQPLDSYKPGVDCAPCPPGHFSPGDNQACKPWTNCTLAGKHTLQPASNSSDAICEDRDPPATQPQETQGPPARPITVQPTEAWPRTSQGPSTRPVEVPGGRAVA
Kind of experiment: SPR, receptor amine-coupled to CM5 (~1000 RU). The protocol: as §1

Another experiment concerns the target human CD40 (human, UniProt P25942 21-193, limits assumed). Kind of experiment: SPR, receptor amine-coupled to CM5 (~1000 RU). As to the method: as §1
Experiment [3] has as its target human CD137, cell-surface (human, UniProt Q07011 24-255). Kind of experiment: cell-based or functional assay.
A further experiment has as its target T5, cCD137-mFc-Avi (cynomolgus; mouse).
T5 construct: also called cynomolgus CD137-mFc-Avi; Cyno CD137-mFc-Avi; not shown: mouse IgG2a Fc domain (mIgG2a Fc)
T5 chain: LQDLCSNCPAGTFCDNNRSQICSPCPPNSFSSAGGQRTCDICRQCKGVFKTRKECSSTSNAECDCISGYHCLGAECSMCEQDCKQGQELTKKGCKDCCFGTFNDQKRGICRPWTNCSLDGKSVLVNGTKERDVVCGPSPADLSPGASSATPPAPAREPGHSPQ
Put plainly: SPR, mAb^2 captured by anti-human Fab, antigen in flow, 1:1 Langmuir fit. As to the method:
(§2) An anti-human Fab capture antibody was immobilised on all four flow cells of a CM5 series S chip (GE Healthcare #BR-1005-30) to an average surface density of 6000 RU following the manufacturer's recommendations (GE Healthcare, human Fab capture Kit, #28958325). […] Each mAb² was captured to approximately 150 RU by injecting a 3 μg/ml solution of mAb² diluted in HBS-EP+ buffer (GE Healthcare #BR1006-69) for 60 seconds at 30 μl/min. Then different concentrations of human, cyno or mouse CD137 antigen (unbiotinylated human, cyno or mouse CD137-mFc-Avi or human CD137-Avi-His) in HBS-EP+ buffer were flowed over the chip for 3 min at 60 μl/min and then allowed to dissociate for 10 minutes. After each antigen concentration the chip was regenerated by infecting 10 mM glycine pH 2.1 at a flow rate of 30 μl/min for 30 seconds. Buffer HBS-EP+ was injected before the highest concentration of antigen and after the lowest concentration of antigen for reference subtraction, and one of the concentrations at random was repeated twice. The binding kinetics were fit with a 1:1 Langmuir model to generate equilibrium binding constants (KD) for each sample. Data analysis was performed with BiaEvaluation software version 3.2.

Another experiment concerns the target T6, hCD137-mFc-Avi (human; mouse, UniProt Q07011 24-186, biotin on the Avi sequence where the biotinylated form was used).
T6 construct: also called human CD137-mFc-Avi; dimeric human CD137; not shown: mouse IgG2a Fc domain (mIgG2a Fc)
The description is as above. As to the method:
as §2

A further experiment concerns the target T7, hCD137-Avi-His (human, UniProt Q07011 24-186).
T7 construct: also called human CD137-Avi-His; monomeric human CD137
The description is as above. The protocol: as §2

T7 sequence (Q07011 24-186): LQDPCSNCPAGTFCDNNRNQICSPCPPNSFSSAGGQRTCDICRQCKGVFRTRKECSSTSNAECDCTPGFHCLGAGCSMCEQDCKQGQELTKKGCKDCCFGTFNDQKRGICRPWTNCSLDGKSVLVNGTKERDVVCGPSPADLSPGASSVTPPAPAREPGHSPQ
T6 sequence (Q07011 24-186): as above
Sequence of human CD40 (P25942 21-193 limits assumed): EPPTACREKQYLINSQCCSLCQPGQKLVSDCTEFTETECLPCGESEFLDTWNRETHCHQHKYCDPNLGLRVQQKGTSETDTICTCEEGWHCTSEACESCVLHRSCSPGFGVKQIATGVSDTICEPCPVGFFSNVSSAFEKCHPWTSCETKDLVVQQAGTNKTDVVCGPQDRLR
Sequence of human CD137, cell-surface (Q07011 24-255): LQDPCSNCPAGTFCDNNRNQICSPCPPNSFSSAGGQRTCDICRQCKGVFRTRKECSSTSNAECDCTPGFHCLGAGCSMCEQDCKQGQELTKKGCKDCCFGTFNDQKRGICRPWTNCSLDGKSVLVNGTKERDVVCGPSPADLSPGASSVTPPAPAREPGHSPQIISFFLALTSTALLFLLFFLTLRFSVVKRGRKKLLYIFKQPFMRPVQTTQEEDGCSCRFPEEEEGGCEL
T1 sequence (Q9NZQ7 other isoform, or with tags, fused parts or gaps): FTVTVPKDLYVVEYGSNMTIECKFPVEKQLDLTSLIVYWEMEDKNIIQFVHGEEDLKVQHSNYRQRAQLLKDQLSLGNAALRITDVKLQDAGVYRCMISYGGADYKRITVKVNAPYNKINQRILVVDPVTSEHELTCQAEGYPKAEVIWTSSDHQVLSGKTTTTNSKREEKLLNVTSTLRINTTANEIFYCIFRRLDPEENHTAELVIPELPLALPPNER
T2 sequence (Q9NZQ7 19-238): as the sequence (Q9NZQ7 other isoform, or with tags, fused parts or gaps) above, with T33A, S34A, N62S, Q68R, R82Q, L173F, A185T, I192T, L215H counted along it

B1: G1-AA/lam-G02v3 (antibody, human IgG1, L234A L235A, V domains shown)
VH: EVQLVQSGAEVKRPGASVKVSCKASGYTFTSYGISWVRQAPGQGLEWMGWISAYSGGTNYAQKLQGRVTMTTDTSTSTAYMELRSLRSDDTAVYYCARDLFPTIFGVSYYYYWGQGTLVTVSS
VL: QSALTQPASVSGSPGQSITISCTGTSSDVGGYNYVSWYQQFPGKAPKLMIFEVTNRPSGVSDRFSGSKSDNTASLTISGLQAEDEAEYYCSSFKRGSTLVVFG
notes: anti-PD-L1 IgG1 with LALA, lambda light chain; also called G1-AA/lambdav3; G1-AA/Iam-G02v3
One may read the Kd as the free concentration of one partner at which half of the binding sites on the other are occupied at equilibrium, for simple one-to-one binding. A low value points to tighter binding. For B1, the figures for the Kd in experiment [1] and in [2] were 2.45 nM and 1.34 nM, respectively.

B2: FS22-053-008/HeID1.3 (bispecific antibody, human IgG1, kappa)
heavy: QVQLQESGPGLVRPSQTLSLTCTVSGSTFSGYGVNWVRQPPGRGLEWIGMIWGDGNTDYNSALKSRVTMLVDTSKNQFSLRLSSVTAADTAVYYCARERDYRLDYWGQGSLVTVSSASTKGPSVFPLAPSSKSTSGGTAALGCLVKDYFPEPVTVSWNSGALTSGVHTFPAVLQSSGLYSLSSVVTVPSSSLGTQTYICNVNHKPSNTKVDKKVEPKSCDKTHTCPPCPAPELLGGPSVFLFPPKPKDTLMISRTPEVTCVVVDVSHEDPEVKFNWYVDGVEVHNAKTKPREEQYNSTYRVVSVLTVLHQDWLNGKEYKCKVSNKALPAPIEKTISKAKGQPREPQVYTLPPSRDELNPPYLFSNQVSLTCLVKGFYPSDIAVEWESNGQPENNYKTTPPVLDSDGSFFLYSKLTVDYWRWLEGNVFSCSVMHEALHNHYTQKSLSLSPG
light: DIQMTQSPASLSASVGETVTITCRASGNIHNYLAWYQQKQGKSPQLLVYNAKTLADGVPSRFSGSGSGTQYSLKINSLQPEDFGSYYCQHFWSTPRTFGGGTKLEIKRTVAAPSVFIFPPSDEQLKSGTASVVCLLNNFYPREAKVQWKVDNALQSGNSQESVTEQDSKDSTYSLSSTLTLSKADYEKHKVYACEVTHQGLSSPVTKSFNRGEC
notes: mock mAb^2; also called FS22-053-008 (mock mAb^2 format)
Regarding B2, the binding result in the experiment with human GITR, with human OX40 and in the experiment with human CD40 was “no binding (tested: 1 µM)” throughout. Also, the “EC50, NF-κB luciferase assay, crosslinked with Protein L (+XL)” value in experiment [3] worked out at 26.3 nM. For the same molecule, the values for the Kd in the experiment with cCD137-mFc-Avi and with hCD137-mFc-Avi were 0.9 nM and 4.2 nM, respectively. Moreover, the “Human monomeric CD137 KD fold difference relative to human dimeric KD” value with hCD137-Avi-His was 170 fold.

B3: FS22-172-003/HeID1.3 (bispecific antibody, human IgG1, kappa)
heavy: QVQLQESGPGLVRPSQTLSLTCTVSGSTFSGYGVNWVRQPPGRGLEWIGMIWGDGNTDYNSALKSRVTMLVDTSKNQFSLRLSSVTAADTAVYYCARERDYRLDYWGQGSLVTVSSASTKGPSVFPLAPSSKSTSGGTAALGCLVKDYFPEPVTVSWNSGALTSGVHTFPAVLQSSGLYSLSSVVTVPSSSLGTQTYICNVNHKPSNTKVDKKVEPKSCDKTHTCPPCPAPELLGGPSVFLFPPKPKDTLMISRTPEVTCVVVDVSHEDPEVKFNWYVDGVEVHNAKTKPREEQYNSTYRVVSVLTVLHQDWLNGKEYKCKVSNKALPAPIEKTISKAKGQPREPQVYTLPPSRDELPYIIPPYNQVSLTCLVKGFYPSDIAVEWESNGQPENNYKTTPPVLDSDGSFFLYSKLTVGADRWLEGNVFSCSVMHEALHNHYTQKSLSLSPG
light: DIQMTQSPASLSASVGETVTITCRASGNIHNYLAWYQQKQGKSPQLLVYNAKTLADGVPSRFSGSGSGTQYSLKINSLQPEDFGSYYCQHFWSTPRTFGGGTKLEIKRTVAAPSVFIFPPSDEQLKSGTASVVCLLNNFYPREAKVQWKVDNALQSGNSQESVTEQDSKDSTYSLSSTLTLSKADYEKHKVYACEVTHQGLSSPVTKSFNRGEC
notes: mock mAb^2 without LALA
Take B3: the binding result in the experiment with human GITR, with human OX40 and with human CD40 was “no binding (tested: 1 µM)” each time. Also, in experiment [3], the “EC50, NF-κB luciferase assay, crosslinked with Protein L (+XL)” value is 32.6 nM. Further, the Kd with cCD137-mFc-Avi was 1.3 nM; in the experiment with hCD137-mFc-Avi, 1.5 nM. In the experiment with hCD137-Avi-His, the “Human monomeric CD137 KD fold difference relative to human dimeric KD” value is over 200 fold.

B4: FS22-172-004/HeID1.3 (bispecific antibody, human IgG1, kappa)
heavy: QVQLQESGPGLVRPSQTLSLTCTVSGSTFSGYGVNWVRQPPGRGLEWIGMIWGDGNTDYNSALKSRVTMLVDTSKNQFSLRLSSVTAADTAVYYCARERDYRLDYWGQGSLVTVSSASTKGPSVFPLAPSSKSTSGGTAALGCLVKDYFPEPVTVSWNSGALTSGVHTFPAVLQSSGLYSLSSVVTVPSSSLGTQTYICNVNHKPSNTKVDKKVEPKSCDKTHTCPPCPAPELLGGPSVFLFPPKPKDTLMISRTPEVTCVVVDVSHEDPEVKFNWYVDGVEVHNAKTKPREEQYNSTYRVVSVLTVLHQDWLNGKEYKCKVSNKALPAPIEKTISKAKGQPREPQVYTLPPSRDELNYIYPPYNQVSLTCLVKGFYPSDIAVEWESNGQPENNYKTTPPVLDSDGSFFLYSKLTVGADRWLEGNVFSCSVMHEALHNHYTQKSLSLSPG
light: DIQMTQSPASLSASVGETVTITCRASGNIHNYLAWYQQKQGKSPQLLVYNAKTLADGVPSRFSGSGSGTQYSLKINSLQPEDFGSYYCQHFWSTPRTFGGGTKLEIKRTVAAPSVFIFPPSDEQLKSGTASVVCLLNNFYPREAKVQWKVDNALQSGNSQESVTEQDSKDSTYSLSSTLTLSKADYEKHKVYACEVTHQGLSSPVTKSFNRGEC
notes: mock mAb^2
As to B4, the binding result with human GITR, in the experiment with human OX40 and in the experiment with human CD40 was “no binding (tested: 1 µM)” throughout. The Kd in the experiment with cCD137-mFc-Avi was 3.5 nM; with hCD137-mFc-Avi, 4.3 nM. Also, in the experiment with hCD137-Avi-His, the “Human monomeric CD137 KD fold difference relative to human dimeric KD” value is over 200 fold.

B5: FS22-053-011/HeID1.3 (bispecific antibody, human IgG1, kappa)
heavy: QVQLQESGPGLVRPSQTLSLTCTVSGSTFSGYGVNWVRQPPGRGLEWIGMIWGDGNTDYNSALKSRVTMLVDTSKNQFSLRLSSVTAADTAVYYCARERDYRLDYWGQGSLVTVSSASTKGPSVFPLAPSSKSTSGGTAALGCLVKDYFPEPVTVSWNSGALTSGVHTFPAVLQSSGLYSLSSVVTVPSSSLGTQTYICNVNHKPSNTKVDKKVEPKSCDKTHTCPPCPAPELLGGPSVFLFPPKPKDTLMISRTPEVTCVVVDVSHEDPEVKFNWYVDGVEVHNAKTKPREEQYNSTYRVVSVLTVLHQDWLNGKEYKCKVSNKALPAPIEKTISKAKGQPREPQVYTLPPSRDELNPPYLFSNQVSLTCLVKGFYPSDIAVEWESNGQPENNYKTTPPVLDSDGSFFLYSKLTVDYWRWTDGNVFSCSVMHEALHNHYTQKSLSLSPG
light: DIQMTQSPASLSASVGETVTITCRASGNIHNYLAWYQQKQGKSPQLLVYNAKTLADGVPSRFSGSGSGTQYSLKINSLQPEDFGSYYCQHFWSTPRTFGGGTKLEIKRTVAAPSVFIFPPSDEQLKSGTASVVCLLNNFYPREAKVQWKVDNALQSGNSQESVTEQDSKDSTYSLSSTLTLSKADYEKHKVYACEVTHQGLSSPVTKSFNRGEC
notes: mock mAb^2; also called FS22-053-011 (mock mAb^2 format)
Consider B5, for which the binding result with human GITR, in the experiment with human OX40 and with human CD40 was “no binding (tested: 1 µM)” each time. In addition, the Kd with cCD137-mFc-Avi is 1.3 nM; with hCD137-mFc-Avi, 5.5 nM. Further, the “Human monomeric CD137 KD fold difference relative to human dimeric KD” value with hCD137-Avi-His is over 200 fold.

The values are drawn from US20250346679A1 (INVOX PHARMA, published 2025).
